Assay results: PMC9576935, “MiR-585-5p impedes gastric cancer proliferation and metastasis by orchestrating the interactions among CREB1, MAPK1 and MITF”

Target: CREB1 (recombinant, Ni-affinity purified) (UniProt P16220 1-327)
Experiment: EMSA; LightShift EMSA kit: 2 ul 5x binding buffer, 6 ul CREB1, 1 ul probe, 25 C, 20 min; salt and pH not stated
Settings: protein: recombinant; (Ni-chelating purification); chain copies: 2; label: 5' 6-FAM (FITC) on forward strand (Methods); blunt

CREB1 (recombinant, Ni-affinity purified), sequence (P16220 whole entry): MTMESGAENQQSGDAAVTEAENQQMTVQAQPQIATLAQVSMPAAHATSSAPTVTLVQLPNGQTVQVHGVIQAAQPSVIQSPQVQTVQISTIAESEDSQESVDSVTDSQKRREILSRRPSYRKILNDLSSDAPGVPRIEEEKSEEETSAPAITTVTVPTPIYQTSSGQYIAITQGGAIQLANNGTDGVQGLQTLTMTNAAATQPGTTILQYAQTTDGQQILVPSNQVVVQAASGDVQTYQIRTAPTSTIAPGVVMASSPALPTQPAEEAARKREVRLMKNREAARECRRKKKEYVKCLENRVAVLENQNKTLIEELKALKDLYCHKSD

B1: MITF-wt probe (dsDNA)
DNA 1: TGGATGTCTTTTCTGATGTGAAATTAAA
DNA 2: TTTAATTTCACATCAGAAAAGACATCCA
  binding result: binds
